Test: soluble on expression in E. coli; label from the status in PepcDB or PDB records

Row | Sequence | soluble on expression in E. coli
1 | MKTGVTGPYTFGVGLITYLCSKEIYVMEHEYYSGLSLGIMAIIAVKKLGPVIAKWADGEIDKIESEWKEGREAELKVLSDAIEAEKKEQWRADGALLLMEAKKENIALQLEAAFRERAMNVYSEVNRPLDYQVECRHVERRLSQKHMVNWITTNVLASISPQQEKETLNKCIADLSALALRVKSALEHHHHHH | not soluble
2 | MGSDKIHHHHHHMNYKNRKRAYYQENSCMDNFICKNCGCLVVPEGAGTQHRNHCPHCLHSLHVDIIPGDRAADCDANMEPIGVWVRKNGEWAIIHRCTRCGHLSSNRIAADDNSVKLMSIALKPLAQPPFPLERIIEKLEKEETE | not soluble
3 | MASFIPNLPSWAKHVDLKFRSALVLSQLFTKSWGHPDVIKQMAKYRRDVMSKRLVMDYVKELNPKIDIVKKYSKNGVTSYEGFFASPHATLFPNHMPGNVGRAHFRAYLPQKPGPVCIHLAGTGDHSYFRRHYLLVDDMLKDGVGSILIQNPFYGDRKPPNQFRSSLENVTDLFVMGAALIAECNHLFNWSETLGYGPFAISGVSMGGFMAQLAGSNSQRPISIVPILAWTTASPSYTEGAISPAVNYSLLQKQLEDPHYVDKIRRIPNQNWLDKMREMTARNGDSEAKNMMRILMDDFTSLEFYPTPIDTSLCHVFLADQDQYVLRNQGTPTYQQLWPNVTVEMMEGYGHVTAYLSKHDLWRRRITELLRRQQQKTI | not soluble
4 | MGPVPEFSVIIPARNEAAYLPGTLRALERQTLAPAEVIVVDNASRDQTAQIARSWGAQVLSCPEGGVARARQLGLDTARSSWVATTDADSLPAPGWLAAYAQAALLAGGYPEVEAYEDVILGQNLARLGEIGYVPRALVETSARRLDRGVGPFLIQHLRNLTGHTRGLEHHHHHH | not soluble
5 | MSLANDDLQQRLDKGMYGTPLVNPEEQHKYMGTFRERCRLSMTVAEMKDAQNQKHLLEELAKHPEVTVLLNGEISSDLQSTYIKLLNQHGANFKIVNNFVENNPDSLGLLLAEKHAVDEPVIDVTEKYPQATETPKEEPTAKKSFWQKLFHSEGHHHHHH | soluble
6 | MPYYTNDDNDVDDFTEYDPMPYSGGYDITVTYGRSIPPSDETCYPLSSLSGDAFEYQRPNFSSNHDSSAYDDQALKTEYSSYARPGPVGSGSDFGRKPNSGYGGRTEVEYGRKTESEHGSGYGGRIESDYVKPSYGGHEDDGDDGHKKHSGKDYDDGDEKSKKKEKEKKKDKKKDGNNSEDDEFKKKKKKEQYKEHHDDDDYDEKKKKKKDYNDDDEKKKKKHYNDDDDEKKKKHNYNDDDDEKKKKKEYHDDEDKKKKKHYDNDDDEKKKKKDHRDDDDEKKKKKDKHHKGHD | soluble
7 | MSTKEIICTLKGQFFLSPREEKFLRLLEEMGIPEEDIQEGIRECLKSVSPKKRKNFPLFKCFSKILEVNKVRALERGKREHLDWKRVFERKVSVVKHLLDFNYTEPKTEEEAEKTLQEIERKIFKKLWENLDKERKREIYNKYKEVKEDEELFKELIKHELRKIFQIPVLSLYVD | not soluble
8 | SLHAAKDEVRSRLMPINRAYNVEKLIEAIQYYQEKTNRRVTFEYGLFGGVNDQLEHARELAHLIKGLNCHVNLIPVNHVPERNYVKTAKNDIFKFEKELKRLGINATIRREQGSDIDAACGQLRAKERQVETR | soluble
9 | MAGTSFLSDLLSGVTERGRALLFSGSKARDRVVDTDIETLCEMLLSSRGEASGMAIAAEILDRWSRFNAAEAVQFLHMLSDRFGAEAAALDKAIDAYRTDKSPMAVIALHNAAEPRRQELLRRLNLAPNGTQKLVRMRERLLETKEDRADLGAVDTDFAHLFSSWFNRGFLTLQPIDWTTPAHILEKIIKYEAVHEIAGWEELRRRLAPADRRCFAFFHPRLRDDPLVFVEVALTRSIPSAIADVLDESRDHIGADTATTAVFYSISNCQDGLRGISFGNFLIKQVVEDLRRDLPGLKEFVTLSPVPGFARWISKIRDPKSGFPLSPEDRNTLVLLDDPTWPEDKARADAVERILLPLAARYFITERTPDNRPVDPVARFHLGNGARLERLNFLGDRSVKAMRQAHGLMVNYLYKLEDIETNHEALAQRGEVAASPAVKALQGKIEPILPEKPKLEHHHHHH | soluble
10 | MGSDKIHHHHHHMERYSGRIFDNHFHLNPKSNFLGAANIFKRSGGTTLNLTNLPSHDAITEYYRRLYDDTIRIGDLVHYELGLEMLITIGPYPFDYFFFERYGSDPVNEMMHGLDLAAKYIEDGKAEAIGEIGFPHVPQPESVMERFWEMLDYAMKIAHDVDAPIVMHTYDLSCEDYAKIEKIAKVNGSVSVVKHHARPSDLTCNTGIARSVPASRSAVRKSLLLSRNFMLETDFINDPIDANRFLPPDSVPKRAQMILQEYDDGSEILNNIFNTIPESIYPKLKEKR | not soluble
11 | SAAIYSLYIINKSGGLIFYKDCGTKGRMDTNDSLRVASLWHSMHAISQQLSPVNGCSGIELLEADTFDLHCFQSLPGTKFFVVCEPGTPHMESLLRYIYELYTDYVLKNPFYEIEMPIRCELFDINLTQAVQSDRVALLGR | soluble
12 | MGSDKIHHHHHHMSLPETPTIRIGMAMWSHPGWKTVFPGLDAEARLTAYSRVFGTVEGNTSFYALPSAQQVSIWQRATPEDFRFTFKLPRRITHELSLRNCREEVLQFFRLFEPLMAKTGVWKIQLPARFGPESLSVLTQFLSLLPEGIGLGVEVRHRAFFAKGEAEKDFNRLLMDKGINRIIMDTRPVFALPAINEAITDAHQKKPRVPVHPLATGAHPVVRFIAQPHTPAAWGPGGKPADLGCADNLAFFAPWLGKLAGWLAEGRSPYLFIHTPDNSDAPLLASELAKQVAAHLQALHPGLPIPSVMLDSAESDGGQIGLGLQ | not soluble
13 | MGSDKIHHHHHHMKKSVMLLVCLLGLSACSTKFSYRFLDWAIGWEQEDYVTLDKTQQKAFDTLVEKMVFWHQSKELAHYVVQLKEVENLIKTNELTPLLWAEHVDIAKRHWFRVFEFAMPELLPIIMSLTDSQVKQILTKLREDEQALVKEFAGKSPEQLQKDADKRLQKQFEDWLGSVSAEQKSLIHQYNQQRLSTLDMWLEYRHEWLRQFEVALGQRADKVLLTERLTLLMTQPDELKSEQHKAFLRQNTEAFGTLLLAMNGSLSAKQSKHFYKKLGKLIQDLTELNQEALEKEFKSMKALST | not soluble
14 | MAAKPILYSSWSSGCSSRVRTALALKKIDYEYQPVNLLNKQKEQEFHGNNPAEKVPILKINGLTLTESMAIIEYLDEIYPDPPLLPKEPELKARARAIAFHIASNIQPLQNKPIYLMLNEKEPGYGDFWCQHFISKGFKALEELLQMHSGDFCVGNQISIADICLPSIVYNAIEKYHVDMTPYPIITRISNKLAELPEFQVAHPNNQPDAPKN | not soluble
15 | ETGDIVETATGAGSFTTLLTAAEAAGLVDTLKGDGPFTVFAPTDAAFAALPEGTVEDLLKPENKEKLTEILTYHVVPGEVMSSDLTEGMTAETVEGGALTVTLEGGPKVNGVSISQPDVDASNGVIHVIDGVLMPGA | soluble
16 | MSLNNVKLLIAGSAFFAMSAQAADRVSIDVKVTLEAAACTPILSNGGVVNFGSHSVNRLSTQHYTQIGTRNINMTITCESATGIAITARDTRMDSMTTGKDSGGQSGVKYTLNGGGYISQTTRLFGLGKTKDNKNIGSYAVLIDSNNISASNGSQTLAVSIAGADAVITGQKRAWQTLTAYPLAVDQSYYYTFVKPGETTPTPVTNAIIPLQVSASIANDLGGSEKIELDGKAVISVVYLEGHHHHHH | not soluble
17 | IGKVGYRLGFNLSDYKSKITKYDDNATTKLLSSFYPGQVMGEIWGYIADGYYSVDDFEDTSSWKLKEGITSINGYNVRPGDVKFKNLRDDESSTNVITSGDNTFDNPGDRKVIGNTTPRYQYGINLGANYAGFDLNVILQGTGKRDYWISNVLTFPMNGDNFIPLFDGLSDYWMPKDPDNGDWTAVNPNAKYPRLYGNRGNSGSNLRQSDKYLSDASYLRIKNITLSYNLPKKWLSQIFLSQMKAFVSVENVATFTSLPSGIDPERIEWNYPAFRTVSFGINITL | not soluble
18 | MSSLDNAPLLELDVQEWVNHEGLSNEDLRGKVVVVEVFQMLCPGCVNHGVPQAQKIHRMIDESQVQVIGLHSVFEHHDVMTPEALKVFIDEFGIKFPVAVDMPREGQRIPSTMKKYRLEGTPSIILADRKGRIRQVQFGQVDDFVLGLLLGSLLSETDET | soluble
19 | MDTESFKREFLPYHRKLYCVAYRLLENAADAEDLVQEAYLKLWDKREGLSVISNPEAFSVTLVKNMCFDLLRSGKYVLSRQSVELSAAQDVFQPDNLEAREGVRQIKDIIAHLPEQQQRIINMRDIKGCSYEEIEQVTGLNSINVRVLLSRARKKIREEFNKWNNYESRRN | not soluble
20 | MTLFDRKTFDRVLGEWPGVRFVDQWDSHVAKVGDKVFAVLGEREDWRLVVKCSEESFEILTSLEGIAQAPYFAKRKWISIGDHSPLEQEELEHYVRRSYELVAAGLTKKLRGELGIVIDNAPRL | soluble
21 | MNDLEKKFYELPELPYPYDALEPHISREQLTIHHQKHHQAYVDGANALLRKLDEARESDTDVDIKAALKELSFHVGGYVLHLFFWGNMGPADECGGEPSGKLAEYIEKDFGSFERFRKEFSQAAISAEGSGWAVLTYCQRTDRLFIMQVEKHNVNVIPHFRILLVLDVWEHAYYIDYRNVRPDYVEAFWNIVNWKEVEKRFEDIL | soluble
22 | MKVGIIMGSVRAKRVCPEIAAYVKRTIENSEELIDQKLKIQVVDLQQIALPLYEDDDELIPAQIKSVDEYADSKTRSWSRIVNALDIIVFVTPQYNWGYPAALKNAIDRLYHEWHGKPALVVSYGGHGGSKCNDQLQEVLHGLKMNVIGGVAVKIPVGTIPLPEDIVPQLSVHNEEILQLLASCIETTRNK | soluble
23 | GMSNEHQLLVGLLKKLKDDALILPTLPEVAMRVQEVVGRPDSSLKQVAEIIGQDAAISARIIKVANSALYSRGVPAENINSAVTRIGLTQIKSIATSVAMEQLFISTNEMVWEVMDEVWRTSIDVTAAACSLLQIYNKKHPGSGLNYDTLTLAGLVHNIGALPVLTEAEAHPEMFTTIEHLRSLVRKMQGPIGRAVLKSWDFAPEVMEVVERWADLPYLGDHVSYLDFIRAAAFYTGELRAGNELEQRLDVFVKRGLPVSPEDLGSDAFLDSYHSIKASYE | soluble
24 | MGSDKIHHHHHHMALMTNKTRALLIGGHGKVALLATPMLIDASVQVTSMYRNPDHRSEIEALGATTLERDVTTLSVEDWADLLKDFDVVVWSAGNGGKNGADATYAIDRDAAIASIDGAASLGEKAPRYIMVSYIGSSTHTIDPSASFYPYAESKKAADEHLSSTNLDYLILAPAALTLDEVNGVEVIADTNEAAAGRTTSRVLVAEVITEFVVRDFPQTRVLPFVDGESPVSSIS | not soluble
25 | MKKIILTIGCPGSGKSTWAREFIAKNPGFYNINRDDYRQSIMAHEERDEYKYTKKKEGIVTGMQFDTAKSILYGGDSVKGVIISDTNLNPERRLAWETFAKEYGWKVEHKVFDVPWTELVKRNSKRGTKAVPIDVLRSMYKSMREYLGLPVYNGTPGKPKAVIFDVDGTLAKMNGRGPYDLEKCDTDVINPMVVELSKMYALMGYQIVVVSGRESGTKEDPTKYYRMTRKWVEDIAGVPLVMQCQREQGDTRKDDVVKEEIFWKHIAPHFDVKLAIDDRTQVVEMWRRIGVECWQVASGDF | soluble

Source: the DeepSol protein solubility set
